Measured values: patent US20170327577A1, “METHODS OF CONSTRUCTING AMINO TERMINAL IMMUNOGLOBULIN FUSION PROTEINS AND COMPOSITIONS THEREOF” (The California Institute for Biomedical Research, priority 2014, published 2017)
Blank lines part the entries; values can stand above or below the substance they belong to.

Key:
leptin receptor = leptin receptor (UniProt P48357); assay: cell-based or functional assay
relaxin receptor (LGR7) = target: T1, relaxin receptor (LGR7) (UniProt Q9HBX9); assay: cell-based or functional assay
T1 sequence (looked up): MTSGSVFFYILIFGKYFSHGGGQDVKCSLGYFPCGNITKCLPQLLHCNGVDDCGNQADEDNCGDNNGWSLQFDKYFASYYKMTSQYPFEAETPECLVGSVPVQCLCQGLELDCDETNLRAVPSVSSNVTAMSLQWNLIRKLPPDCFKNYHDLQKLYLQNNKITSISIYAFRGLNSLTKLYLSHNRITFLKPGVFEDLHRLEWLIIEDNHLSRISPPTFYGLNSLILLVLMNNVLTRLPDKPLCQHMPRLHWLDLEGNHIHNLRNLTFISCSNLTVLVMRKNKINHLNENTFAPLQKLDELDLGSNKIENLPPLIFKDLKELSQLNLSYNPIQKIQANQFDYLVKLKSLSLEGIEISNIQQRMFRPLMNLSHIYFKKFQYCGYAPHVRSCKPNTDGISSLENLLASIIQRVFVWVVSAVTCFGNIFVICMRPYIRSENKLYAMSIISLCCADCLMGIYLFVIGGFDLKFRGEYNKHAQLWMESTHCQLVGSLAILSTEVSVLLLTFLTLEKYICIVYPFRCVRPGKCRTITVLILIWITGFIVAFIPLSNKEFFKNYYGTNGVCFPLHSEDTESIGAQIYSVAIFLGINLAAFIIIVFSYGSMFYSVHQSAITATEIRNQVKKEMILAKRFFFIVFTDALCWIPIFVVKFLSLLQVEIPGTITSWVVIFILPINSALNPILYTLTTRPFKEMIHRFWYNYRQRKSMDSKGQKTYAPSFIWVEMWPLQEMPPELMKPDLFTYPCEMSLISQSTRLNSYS

GLP-2 receptor (GLP-2R) = target: T2, GLP-2 receptor (GLP-2R) (Homo sapiens, UniProt O95838); assay: GLP-2 receptor activation, CRE-luciferase reporter assay in HEK293 cells; format: cell-based; conditions: Example 18; HEK293 GLP-2R CRE-Luc, 24 hours
T2 sequence (O95838 1-553): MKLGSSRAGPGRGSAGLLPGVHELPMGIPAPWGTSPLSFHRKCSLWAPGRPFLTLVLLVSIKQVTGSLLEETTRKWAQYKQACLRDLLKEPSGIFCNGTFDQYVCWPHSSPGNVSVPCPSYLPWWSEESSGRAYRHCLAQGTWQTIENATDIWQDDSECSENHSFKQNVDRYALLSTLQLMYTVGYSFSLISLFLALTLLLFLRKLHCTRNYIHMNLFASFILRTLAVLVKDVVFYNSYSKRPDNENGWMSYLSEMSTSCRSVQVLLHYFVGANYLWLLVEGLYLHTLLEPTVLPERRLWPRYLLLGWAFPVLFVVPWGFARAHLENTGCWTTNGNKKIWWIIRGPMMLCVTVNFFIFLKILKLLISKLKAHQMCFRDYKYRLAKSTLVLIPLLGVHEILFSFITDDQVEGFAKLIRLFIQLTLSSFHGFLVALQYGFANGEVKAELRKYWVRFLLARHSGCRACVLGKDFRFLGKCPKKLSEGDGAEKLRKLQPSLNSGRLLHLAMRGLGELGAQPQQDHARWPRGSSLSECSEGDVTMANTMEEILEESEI

GLP-2 receptor = GLP-2 receptor (UniProt O95838); assay: cell-based or functional assay
relaxin receptor (LGR8) = relaxin receptor (LGR8) (Homo sapiens, UniProt Q8WXD0); assay: cell-based or functional assay
GLP-1 receptor = GLP-1 receptor (UniProt P43220); assay: cell-based or functional assay
glucagon receptor = glucagon receptor (UniProt P47871); assay: cell-based or functional assay

relaxin receptor (LGR8), sequence (Q8WXD0 whole entry): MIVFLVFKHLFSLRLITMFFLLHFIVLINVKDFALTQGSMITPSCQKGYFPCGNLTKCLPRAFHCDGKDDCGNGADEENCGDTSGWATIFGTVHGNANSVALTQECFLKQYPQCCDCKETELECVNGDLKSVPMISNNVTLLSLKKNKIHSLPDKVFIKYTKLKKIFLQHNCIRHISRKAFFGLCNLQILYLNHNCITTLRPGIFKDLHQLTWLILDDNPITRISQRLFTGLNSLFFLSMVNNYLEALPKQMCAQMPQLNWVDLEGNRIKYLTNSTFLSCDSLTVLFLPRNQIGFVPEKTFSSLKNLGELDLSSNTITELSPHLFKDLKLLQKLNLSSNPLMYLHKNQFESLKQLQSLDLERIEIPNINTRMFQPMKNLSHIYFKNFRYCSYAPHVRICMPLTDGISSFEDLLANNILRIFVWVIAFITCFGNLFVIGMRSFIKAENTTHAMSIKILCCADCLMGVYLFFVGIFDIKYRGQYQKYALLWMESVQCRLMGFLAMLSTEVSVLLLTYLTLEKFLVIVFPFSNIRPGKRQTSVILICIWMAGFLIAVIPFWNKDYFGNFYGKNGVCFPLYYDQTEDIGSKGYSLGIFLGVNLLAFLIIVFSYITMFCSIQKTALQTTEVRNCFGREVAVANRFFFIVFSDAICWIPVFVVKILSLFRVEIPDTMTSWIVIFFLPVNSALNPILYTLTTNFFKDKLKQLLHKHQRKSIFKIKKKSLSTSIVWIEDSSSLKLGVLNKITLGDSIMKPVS
palivizumab(NH, CEXGGGGS)-relaxin2(single) and palivizumab light chain, sequence (heavy): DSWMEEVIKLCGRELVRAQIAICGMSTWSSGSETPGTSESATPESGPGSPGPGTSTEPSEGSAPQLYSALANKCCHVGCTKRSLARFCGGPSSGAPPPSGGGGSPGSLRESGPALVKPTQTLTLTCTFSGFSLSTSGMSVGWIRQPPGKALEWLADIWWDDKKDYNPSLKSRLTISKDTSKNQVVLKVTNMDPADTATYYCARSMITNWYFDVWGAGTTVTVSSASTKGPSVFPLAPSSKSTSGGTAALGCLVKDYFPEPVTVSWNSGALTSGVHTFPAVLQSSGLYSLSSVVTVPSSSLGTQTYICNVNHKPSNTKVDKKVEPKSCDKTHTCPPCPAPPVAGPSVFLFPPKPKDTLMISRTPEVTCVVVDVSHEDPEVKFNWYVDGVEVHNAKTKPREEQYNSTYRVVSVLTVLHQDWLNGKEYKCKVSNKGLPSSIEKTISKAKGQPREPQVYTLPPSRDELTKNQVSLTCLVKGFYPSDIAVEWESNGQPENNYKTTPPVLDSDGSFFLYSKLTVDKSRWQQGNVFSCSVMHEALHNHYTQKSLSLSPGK
palivizumab(NH, CEXGGGGS)-relaxin2(single) and palivizumab light chain, sequence (light): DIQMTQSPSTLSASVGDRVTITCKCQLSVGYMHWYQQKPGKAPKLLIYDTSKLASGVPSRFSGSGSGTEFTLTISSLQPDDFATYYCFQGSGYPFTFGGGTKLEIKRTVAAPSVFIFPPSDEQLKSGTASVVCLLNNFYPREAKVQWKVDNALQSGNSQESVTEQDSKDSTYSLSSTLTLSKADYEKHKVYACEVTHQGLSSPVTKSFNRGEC
palivizumab (NH, GGGGS3)-relaxin2(9GS) and palivizumab light chain, sequence (heavy): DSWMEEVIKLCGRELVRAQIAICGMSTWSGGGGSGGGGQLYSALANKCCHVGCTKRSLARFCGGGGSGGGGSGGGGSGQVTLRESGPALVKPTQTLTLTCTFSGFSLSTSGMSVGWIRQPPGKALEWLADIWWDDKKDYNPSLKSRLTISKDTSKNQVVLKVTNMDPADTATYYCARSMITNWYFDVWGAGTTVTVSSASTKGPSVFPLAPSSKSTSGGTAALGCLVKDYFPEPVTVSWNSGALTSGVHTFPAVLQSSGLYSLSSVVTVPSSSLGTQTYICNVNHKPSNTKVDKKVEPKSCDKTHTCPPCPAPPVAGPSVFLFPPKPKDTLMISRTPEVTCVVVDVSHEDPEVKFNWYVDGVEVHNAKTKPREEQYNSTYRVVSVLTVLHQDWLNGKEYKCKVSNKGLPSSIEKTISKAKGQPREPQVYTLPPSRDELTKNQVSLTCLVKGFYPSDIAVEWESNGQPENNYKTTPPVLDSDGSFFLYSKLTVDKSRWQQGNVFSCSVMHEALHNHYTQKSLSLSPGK
palivizumab (NH, GGGGS3)-relaxin2(9GS) and palivizumab light chain, sequence (light): as the sequence (light) above
palivizumab (NH, CEXGGGGG)-relaxin2(9GS) and palivizumab light chain, sequence (heavy): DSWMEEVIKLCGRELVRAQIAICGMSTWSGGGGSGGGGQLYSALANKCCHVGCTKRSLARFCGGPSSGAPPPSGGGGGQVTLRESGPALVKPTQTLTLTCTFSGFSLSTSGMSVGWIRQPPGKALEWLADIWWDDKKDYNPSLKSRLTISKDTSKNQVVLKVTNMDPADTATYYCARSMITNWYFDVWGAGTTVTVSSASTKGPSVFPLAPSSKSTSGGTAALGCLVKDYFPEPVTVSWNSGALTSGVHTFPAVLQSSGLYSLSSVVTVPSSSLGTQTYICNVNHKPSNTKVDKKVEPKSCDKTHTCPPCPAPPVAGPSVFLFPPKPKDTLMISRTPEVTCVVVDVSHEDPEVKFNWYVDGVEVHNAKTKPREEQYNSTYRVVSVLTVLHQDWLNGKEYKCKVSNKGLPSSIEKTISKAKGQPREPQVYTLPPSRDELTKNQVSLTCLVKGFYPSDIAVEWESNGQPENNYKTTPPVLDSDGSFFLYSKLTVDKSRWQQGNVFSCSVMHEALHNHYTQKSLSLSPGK
palivizumab (NH, CEXGGGGG)-relaxin2(9GS) and palivizumab light chain, sequence (light): as the sequence (light) above
palivizumab (NH, GGGGS3)-relaxin(18GS) and palivizumab light chain, sequence (heavy): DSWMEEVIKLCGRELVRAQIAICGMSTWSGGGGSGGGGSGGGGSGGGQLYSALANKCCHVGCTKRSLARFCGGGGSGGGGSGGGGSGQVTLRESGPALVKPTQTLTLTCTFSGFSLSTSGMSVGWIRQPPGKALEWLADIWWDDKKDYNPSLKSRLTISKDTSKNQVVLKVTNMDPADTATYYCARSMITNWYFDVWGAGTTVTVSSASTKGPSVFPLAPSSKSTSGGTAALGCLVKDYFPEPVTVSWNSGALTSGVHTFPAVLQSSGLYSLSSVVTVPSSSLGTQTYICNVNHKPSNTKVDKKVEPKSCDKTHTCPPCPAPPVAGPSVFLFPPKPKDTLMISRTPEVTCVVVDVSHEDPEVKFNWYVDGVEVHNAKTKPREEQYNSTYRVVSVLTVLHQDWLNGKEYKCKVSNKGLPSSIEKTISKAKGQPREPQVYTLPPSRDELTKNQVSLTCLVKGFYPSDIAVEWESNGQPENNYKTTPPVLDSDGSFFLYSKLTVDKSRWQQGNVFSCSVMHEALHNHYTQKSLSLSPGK
palivizumab (NH, GGGGS3)-relaxin(18GS) and palivizumab light chain, sequence (light): as the sequence (light) above
palivizumab fab(NH, CEXGGGGS)-relaxin2(single) and palivizumab light chain, sequence (heavy): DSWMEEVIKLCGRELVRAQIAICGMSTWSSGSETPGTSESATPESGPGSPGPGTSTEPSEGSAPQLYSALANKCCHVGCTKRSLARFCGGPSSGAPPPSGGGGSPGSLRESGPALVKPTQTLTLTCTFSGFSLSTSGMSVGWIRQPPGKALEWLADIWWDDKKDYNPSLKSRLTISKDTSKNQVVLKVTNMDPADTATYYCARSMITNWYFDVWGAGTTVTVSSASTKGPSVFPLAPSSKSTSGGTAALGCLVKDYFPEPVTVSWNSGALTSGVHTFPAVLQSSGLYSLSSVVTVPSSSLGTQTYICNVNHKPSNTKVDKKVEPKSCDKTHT
palivizumab fab(NH, CEXGGGGS)-relaxin2(single) and palivizumab light chain, sequence (light): as the sequence (light) above
palivizumab fab(NH, GGGGS3)-relaxin2(9GS) and palivizumab light chain, sequence (heavy): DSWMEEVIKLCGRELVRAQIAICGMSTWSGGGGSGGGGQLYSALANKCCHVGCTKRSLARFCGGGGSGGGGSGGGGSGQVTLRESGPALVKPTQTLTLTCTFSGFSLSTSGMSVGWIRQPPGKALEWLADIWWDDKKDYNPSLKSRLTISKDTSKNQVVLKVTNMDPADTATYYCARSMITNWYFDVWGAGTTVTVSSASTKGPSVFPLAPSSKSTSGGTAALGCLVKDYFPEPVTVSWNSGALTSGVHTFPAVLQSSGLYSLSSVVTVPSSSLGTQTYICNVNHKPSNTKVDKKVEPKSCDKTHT
palivizumab fab(NH, GGGGS3)-relaxin2(9GS) and palivizumab light chain, sequence (light): as the sequence (light) above

EC50, luciferase reporter (FIG. 6) (leptin receptor): 0.055 nM
Substance: leptin (from UniProt P41159 22-167) (ligand)

Substance: palivizumab (NH, CEXGGGGG)-relaxin2(9GS) and palivizumab light chain
EC50, CRE-luciferase reporter in HEK293 cells (relaxin receptor (LGR7)): 0.48 nM

EC50, CRE-luciferase reporter in HEK293 cells (relaxin receptor (LGR7)): 0.24 nM
Substance: palivizumab (NH, GGGGS3)-relaxin2(9GS) and palivizumab light chain

EC50, CRE-luciferase reporter in HEK293 cells (relaxin receptor (LGR7)): 1.3 nM
Substance: palivizumab (NH, GGGGS3)-relaxin(18GS) and palivizumab light chain

Substance: palivizumab fab(NH, CEXGGGGS)-relaxin2(single) and palivizumab light chain
EC50, CRE-luciferase reporter in HEK293 cells (relaxin receptor (LGR7)): 47.3 nM

EC50, CRE-luciferase reporter in HEK293 cells (relaxin receptor (LGR7)): 5.8 nM
Substance: palivizumab fab(NH, GGGGS3)-relaxin2(9GS) and palivizumab light chain

Substance: palivizumab(NH, CEXGGGGG)-relaxin2(30GS) and palivizumab light chain
EC50, CRE-luciferase reporter in HEK293 cells (relaxin receptor (LGR7)): 0.208 nM

Substance: palivizumab(NH, CEXGGGGG)-relaxin2(GGGPRR) and palivizumab light chain
EC50, CRE-luciferase reporter in HEK293 cells (relaxin receptor (LGR7)): 2 nM

Substance: palivizumab(NH, CEXGGGGS)-GLP2 (SEQ ID NO: 218) and palivizumab(L) (SEQ ID NO: 7)
EC50 (GLP-2 receptor (GLP-2R)): 0.133 nM

Substance: palivizumab(NH, CEXGGGGS)-GLP2 and palivizumab(L)
EC50, CRE-luciferase reporter in HEK293 cells (GLP-2 receptor): 0.133 nM

Substance: palivizumab(NH, CEXGGGGS)-relaxin2(single) and palivizumab light chain
EC50, CRE-luciferase reporter in HEK293 cells (FIG. 13) (relaxin receptor (LGR8)): 553 nM | EC50, CRE-luciferase reporter in HEK293 cells (relaxin receptor (LGR7)): 2.5 nM | EC50, CRE-luciferase reporter in HEK293 cells (FIG. 13) (relaxin receptor (LGR7)): 2.5 nM

EC50, CRE-luciferase reporter in HEK293 cells (GLP-2 receptor): 0.069 nM
Substance: palivizumab(NH, EAAAK)-GLP2 and palivizumab(L)

EC50, CRE-luciferase reporter in HEK293 cells (relaxin receptor (LGR7)): 3.4 nM
Substance: palivizumab(NH, EAAAK)-relaxin2(GGGPRR) and palivizumab light chain

Substance: palivizumab(NL, EAAAK)-glucagon(2G) and pPalivizumab(NH, GGGGS1)-exendin-4
EC50, CRE-luciferase reporter in HEK293 cells (GLP-1 receptor): 0.009 nM | EC50, CRE-luciferase reporter in HEK293 cells (glucagon receptor): 0.026 nM

EC50, CRE-luciferase reporter in HEK293 cells (FIG. 13) (relaxin receptor (LGR8)): 11.2 nM | EC50, CRE-luciferase reporter in HEK293 cells (FIG. 23) (relaxin receptor (LGR8)): 11.2 nM | EC50, CRE-luciferase reporter in HEK293 cells (relaxin receptor (LGR7)): 0.0121 nM | EC50, CRE-luciferase reporter in HEK293 cells (FIG. 13) (relaxin receptor (LGR7)): 0.012 nM | EC50, CRE-luciferase reporter in HEK293 cells (FIG. 23) (relaxin receptor (LGR7)): 0.014 nM
Substance: relaxin-2 (from UniProt P04090 25-185) (ligand)

EC50, luciferase reporter (FIG. 6) (leptin receptor): 0.0448 nM
Substance: trastuzumab(CDR3H) Leptin
